± gives the half width of the 95% confidence interval.
Experiments:
[1] = folding stability dG unfold from trypsin proteolysis; higher = more stable
Outline: (§1)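 K50 was inferred by Bayesian fitting of sequencing counts obtained after protease digestion of designed mini-proteins. Unfolding free energy was derived by comparison with a sequence-predicted unfolded-state K50 and a shared folded-state K50, for each protease or both combined. The mini-proteins were under 80 residues, had no cysteine, were carried in a PA-tagged cDNA display construct, and were kept only if AlphaFold2 dimer inter-PAE exceeded 15.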

[2] = folding stability dG unfold (combined trypsin and chymotrypsin); higher = more stable
Outline: as §1

[3] = folding stability dG unfold from chymotrypsin proteolysis; higher = more stable
Outline: as §1

Row | Sequence | folding stability dG unfold [1] | folding stability dG unfold [2] | folding stability dG unfold [3]
1 | SAGGMVLVSTPSNRGASSEILKEAAEAISAGDPDKAAELAREYFQKNFPPDEPIKIEIFVDPPVEPESAGGS [r8_48_TrMRF] | 0.476 ± 0.011 kcal/mol | 0.662 ± 0.044 kcal/mol | 0.744 ± 0.063 kcal/mol
2 | SAGGMVTTESTKPYLLPNGTKATLTTTTTLYPDGTVVSPTTFTLTFPDGSSTTTTTTTVTTLASGALSAGGS [r16_505_JUSTAS] | 0.836 ± 0.048 kcal/mol | 0.727 ± 0.065 kcal/mol | 0.563 ± 0.089 kcal/mol
3 | SAGGMVTVSTPLGLGYSEEIKARMEEYVKAGDPEAAKELAQEYIDAKYPPKWPVEISFHENPAISKKSAGGS [r8_48_JUSTAS] | -0.769 ± 0.38 kcal/mol | -0.396 ± 0.36 kcal/mol | -0.209 ± 0.18 kcal/mol
4 | SAGGMYMVQIEVRSPDKEIPFMIMVPEDDPKKIVDDIKEEIAEEAGADNVNIKIEVYRMDENGEWEWISAGG [r13_877_TrROS] | 0.866 ± 0.088 kcal/mol | 1.02 ± 0.11 kcal/mol | 1.01 ± 0.13 kcal/mol
5 | SAGGMYVLPIDLDPASLTEEERLAVARELAEELYAAGVPGDVMLIIPREEKPLTITIDFATGEVTVVDSAGG [r19_204_JUSTAS] | 1.32 ± 0.045 kcal/mol | 1.31 ± 0.048 kcal/mol | 1.22 ± 0.055 kcal/mol
6 | SAGGNFVVPFKDPEQVKEIREAAEKGEEIEITPPDGKKFTFKVESVEVDPESGRVVIKLPSGKEFPLSAGGS [r16_254_TrMRF] | 0.275 ± 0.057 kcal/mol | 0.617 ± 0.16 kcal/mol | 0.62 ± 0.24 kcal/mol
7 | SAGGNIKIKLKGKIYDLNSNKYYDVEIEYDPKTGKAIITTPKGLKFEINPKEKKAEIPSKNYALEIGSAGGS [r16_743_TrMRF] | 1.21 ± 0.096 kcal/mol | 1.2 ± 0.16 kcal/mol | 1.37 ± 0.17 kcal/mol
8 | SAGGNIKIQVENHEDGWYMKIWVPGNGKEQEYPFEPGDTIDTLPPGAEPVKIEWFHMNDNPQEFELDSAGGS [r8_487_TrROS] | 0.295 ± 0.11 kcal/mol | 0.421 ± 0.18 kcal/mol | 0.45 ± 0.23 kcal/mol
9 | SAGGNINDIAKKLGLPPGGMIMIKDFSLEWHRMPMRVPEEDNDKPKEEKEVPMPMYKAEIKISLFPADSAGG [r13_482_TrROS] | 0.955 ± 0.056 kcal/mol | 1.52 ± 0.22 kcal/mol | 2 ± 0.13 kcal/mol
10 | SAGGNIQIHYNPDWGVIRITYMFPSPTEAEDFIKKLLPPGYKIEPIEVERNPDGYYQVSIEIRLPKGASAGG [r13_338_TrROS] | 2.82 ± 0.12 kcal/mol | 3.64 ± 0.063 kcal/mol | 3.924 ± 0.036 kcal/mol
11 | SAGGNNAWVQITIPITIKPVYEPEYDPDNGKPKWEPREMEIPITIWAPFDDPEDAERAADDILKSLGISAGG [r13_35_TrROS] | 0.837 ± 0.037 kcal/mol | 0.756 ± 0.1 kcal/mol | 0.769 ± 0.12 kcal/mol
12 | SAGGNNIMIWIRKNPKEGKRKIMIYTDSPSWVEMIAEEAKDPGFKIVGPMTVEEAAQKMGFPPDLFISAGGS [r16_438_TrROS] | 1.09 ± 0.14 kcal/mol | 1.27 ± 0.2 kcal/mol | 1.29 ± 0.15 kcal/mol
13 | SAGGNPDGKPDGGVSFVVNVAKTKPYIDPSTGKVYPVVEVKPVVIEVKKDEKLDLSELLKNTDYISVSSAGG [r13_753_TrMRF] | -0.463 ± 0.14 kcal/mol | 0.0383 ± 0.12 kcal/mol | 0.142 ± 0.13 kcal/mol
14 | SAGGNPRPIELYFPEGKIEKIQEKLREEDGYDVDIQMEQNPDGWFKINITFQDPQRVMDILEKFGITSAGGS [r16_172_TrROS] | 1.19 ± 0.058 kcal/mol | 1.26 ± 0.089 kcal/mol | 1.37 ± 0.031 kcal/mol
15 | SAGGPDNIRIDLKIEPTGDSVKITFPIYNPNGSPIKVEMEYQRVGGKKFFRMKIEFGGRPIELWIPISAGGS [r16_476_TrROS] | 3.4 ± 0.13 kcal/mol | 4.7 ± 0.22 kcal/mol | 4.93 ± 0.094 kcal/mol
16 | SAGGPEELAERIAEFARENGYEVDVLSVEELPGDFVRIHMRIRGLSEDEPVFERDAVLVFPPLPGERSAGGS [r8_102_TrMRF] | 1.45 ± 0.025 kcal/mol | 3 ± 0.052 kcal/mol | 3.439 ± 0.02 kcal/mol
17 | SAGGPETRTFTIPAAPATVTVTLEKVGDGYRVSLTLTNPDGQTVEVPPDQPVVIPAGASVGAALAPESAGGS [r16_669_TrMRF] | 1.01 ± 0.034 kcal/mol | 1.35 ± 0.1 kcal/mol | 1.53 ± 0.091 kcal/mol
18 | SAGGPEVEAERFGDTVLVRITLLDPETGEPYEFLAIATRRPDGTVTVTIIHPDGRPSTIPLPLLPLASAGGS [r16_154_TrMRF] | 2.63 ± 0.16 kcal/mol | 2.26 ± 0.14 kcal/mol | 1.88 ± 0.039 kcal/mol
19 | SAGGPGAEIWFIKIPIEIEMKMKRKRENDPDGNPRPEWEMEMKIEIPIEIYPIRVRLDPDGKIKSIEFSAGG [r13_148_TrROS] | 2.77 ± 0.15 kcal/mol | 3.67 ± 0.23 kcal/mol | 4.3 ± 0.11 kcal/mol
20 | SAGGPGMEPIGEIKLDDGVTIEVWRPPNGWYRAKVEFPDNGKQINYPFNPNMSFEQAKDQIKELARKLSAGG [r13_624_TrROS] | 0.519 ± 0.13 kcal/mol | 1.52 ± 0.36 kcal/mol | 1.86 ± 0.15 kcal/mol
21 | SAGGPGRMREREFEIEFPFEPGQSIEDALRELIGLPPGIQIEDIKVEVDPEDGWVKISVTITVYDPNDSAGG [r13_828_TrROS] | 1.22 ± 0.042 kcal/mol | 1.29 ± 0.15 kcal/mol | 1.29 ± 0.071 kcal/mol
22 | SAGGPKPKTYDIMIPFDSEEEAEKLMENPEWAKEIAKEIAPLFPGYDIKVEVSWHPETGYFMVKITVSAGGS [r16_320_TrROS] | 3.21 ± 0.18 kcal/mol | 4.01 ± 0.13 kcal/mol | 4.12 ± 0.18 kcal/mol
23 | SAGGPKWYYITIKIPDDPKKAERLVDRLQDLFGEDVRINVNPGNNHVTVWIPNDLRPLLKDHGLEITPSAGG [r13_156_TrROS] | 2.94 ± 0.086 kcal/mol | 2.93 ± 0.047 kcal/mol | 2.95 ± 0.02 kcal/mol
24 | SAGGPMKPFLKNFSGPEEAIAFVNKLREELKGPVGLTLIFPDGSVIEVVDPQKLESIDNFEVIVTVSESAGG [r13_620_JUSTAS] | 1.39 ± 0.039 kcal/mol | 1.69 ± 0.096 kcal/mol | 1.8 ± 0.085 kcal/mol
25 | SAGGPMKVKVTLIVRDKETGEWKEVEREMTLDELRELLASLPPDAEVFVKIEVDGKTVTLSLEELKALSAGG [r13_254_TrROS_Hall] | 3.84 ± 0.17 kcal/mol | 4.29 ± 0.12 kcal/mol | 4.32 ± 0.097 kcal/mol
26 | SAGGPNFTIKIEIEEIPNGVRVHKMTMELPDGHAWLMVMLYSPDPGKMFMIMVPVDPNGGIEDINIMPSAGG [r13_323_TrROS] | 2.52 ± 0.077 kcal/mol | 3.92 ± 0.19 kcal/mol | 4.12 ± 0.074 kcal/mol
27 | SAGGPNLYIFIKIEHKGQTVTFMYPVPPGNLEKLVDEIASMGFPEIKIEEIYIFPPNGWIPVTVRLPSAGGS [r8_219_TrROS] | 2.88 ± 0.13 kcal/mol | 3.4 ± 0.14 kcal/mol | 3.71 ± 0.041 kcal/mol
